Measurements taken from patent publication US20160272937A1, “METHODS OF GENERATING INTERMEDIATE MESODERM CELLS FROM HUMAN PLURIPOTENT STEM CELLS” (THE BRIGHAM AND WOMEN'S HOSPITAL, INC., priority 2013, published 2016).

How the values were obtained:
CHIR-induced hPSCs = assay: Growth factor screen for PAX2 induction in CHIR-induced mesendodermal cells (immunostaining); assay type: cell-based, human; details: day 4
Method: For immunofluorescence studies, cultures are washed once with PBS (Invitrogen) and fixed in 4% paraformaldehyde for 15 min at room temperature (RT). Fixed cells are then washed three times in PBS and incubated in blocking buffer (0.3% Triton X-100 (Fisher Scientific) and 5% normal donkey serum (EMD Millipore) in PBS) for 1 hour at RT.
The cells are then incubated with primary antibody overnight at 4° C. or for 2 hours at RT in antibody dilution buffer (0.3% Triton X-100 and 1% BSA (Roche) in PBS). Cells are then washed three times in PBS and incubated with Alexa Fluor 488-, 555-, or 647-conjugated secondary antibodies (1:500) (Molecular Probes) in antibody dilution buffer for 1 hour at RT. For immunostaining with Biotinylated Lotus Tetragonolobus Lectin (LTL, Vector Labs), a Streptavidin/Biotin Blocking Kit (Vector Labs) and Alexa Fluor 488- or 647-conjugated Streptavidin (Molecular Probes) were used according to manufacturer's instructions.
Nuclei can be counterstained with DAPI (Sigma). […] Immunofluorescence is visualized using an inverted fluorescence microscope (Nikon Eclipse Ti, Tokyo, Japan). Quantification is performed by counting a minimum of five random fields at 10× magnification.
PAX2 is selected since it is an early marker of IM, and, unlike the markers OSR1 or LHX1 which are also expressed in the adjacent lateral plate mesoderm, PAX2 expression is restricted in mesoderm to the IM.

[1] = system: human pluripotent stem cells (hPSCs); assay: Mesendoderm induction: BRACHYURY immunofluorescence in hPSCs; assay type: cell-based; details: WNT3A alone 500 ng/mL, 24 hours of treatment
Method: For differentiation experiments, hESCs or hiPSCs can be grown on Geltrex, washed once with PBS and dissociated into single cells with Accutase ([…] Technologies). Cells are plated at a density of 4×10^4 cells/cm^2 onto Geltrex-coated plates in mTeSR1 medium supplemented with the ROCK inhibitor Y27632 10 μM (Stemgent). Cells are fed daily with mTeSR1 without Y27632 for 2-3 days until they reached 50% confluency. Mesendoderm differentiation-the media is changed to Advanced RPMI (A-RPMI, Invitrogen) supplemented with 1×L-glutamax and 1× penicillin/streptomycin and either CHIR99021 (CHIR, Stemgent), human Wnt3a (R&D systems), and/or human activin A (R&D systems) at the doses described. Definitive endoderm differentiation-cells are treated with […] for 24 hours, then […]+100 ng/mL of activin A for 2-3 days. Hepatic differentiation-cells at the definitive endoderm stage are treated with […]27 supplement (Invitrogen)+20 ng/mL BMP-4 (R&D systems)+10 ng/mL FGF2 (Invitrogen) for 5 days, then […]27+10 ng/mL HGF for 5 days, then HCM Hepatocyte Culture Medium (Lonza) supplemented with 20 ng/mL Oncostatin M and 10 ng/mL HGF (Peprotech) for 5 days. Pancreatic differentiation-cells at the definitive endoderm stage are treated with DMEM/F12+2% FBS (Hyclone)+50 ng/mL FGF7 (R&D systems) for 2 days, then high-glucose DMEM (Mediatech)+1% B27+2 μM retinoic acid (Sigma)+0.25 μM KAAD cyclopamine (EMD Millipore)+100 ng/mL recombinant human Noggin (R&D systems) for 4 days, then high-glucose DMEM+1% B27+100 ng/mL Noggin+300 nM indolactam V (Stemgent)+1 μM ALK5 inhibitor II (Axxora) for 4 days. Anterior foregut endoderm differentiation-cells at the definitive endoderm stage are treated with DMEM/F12+1×L-glu+1×B27+200 ng/mL Noggin+10 μM SB431542 (Stemgent) for 3 days. […] Immunofluorescence is visualized using an inverted fluorescence microscope (Nikon Eclipse Ti, Tokyo, Japan). Quantification is performed by counting a minimum of five random fields at 10× magnification. […]

[2] = system: hPSCs (hESC and hiPSC lines); assay: Intermediate mesoderm differentiation: PAX2/LHX1 immunostaining; assay type: cell-based, human; details: BMP-7 added to FGF2 and RA after CHIR 36 hours, day 3
Method: Mesendoderm differentiation—the media is changed to Advanced RPMI (A-RPMI, Invitrogen) supplemented with 1×L-glutamax and 1× penicillin/streptomycin and either CHIR99021 (CHIR, Stemgent), human Wnt3a (R&D systems), and/or human activin A (R&D systems) at the doses described. Definitive endoderm differentiation—cells are treated with A-RPMI+1×L-glu+1×P/S+5 μM CHIR for 24 hours, then A-RPMI+1×Lglu+1×P/S+100 ng/mL of activin A for 2-3 days. Hepatic differentiation—cells at the definitive endoderm stage are treated with A-RPMI+1×L-glu+1×P/S+1×B27 supplement (Invitrogen)+20 ng/mL BMP-4 (R&D systems)+10 ng/mL FGF2 (Invitrogen) for 5 days, then A-RPMI+1×L-glu+1×P/S+1×B27+10 ng/mL HGF for 5 days, then HCM Hepatocyte Culture Medium (Lonza) supplemented with 20 ng/mL Oncostatin M and 10 ng/mL HGF (Peprotech) for 5 days. Pancreatic differentiation—cells at the definitive endoderm stage are treated with DMEM/F12+2% FBS (Hyclone)+50 ng/mL FGF7 (R&D systems) for 2 days, then high-glucose DMEM (Mediatech)+1% B27+2 μM retinoic acid (Sigma)+0.25 μM KAAD cyclopamine (EMD Millipore)+100 ng/mL recombinant human Noggin (R&D systems) for 4 days, then high-glucose DMEM+1% B27+100 ng/mL Noggin+300 nM indolactam V (Stemgent)+1 μM ALK5 inhibitor II (Axxora) for 4 days. Anterior foregut endoderm differentiation—cells at the definitive endoderm stage are treated with DMEM/F12+1×L-glu+1×B27+200 ng/mL Noggin+10 μM SB431542 (Stemgent) for 3 days. For hindgut endoderm differentiation, cells at the definitive endoderm stage were treated with A-RPMI+1×L-glu+1×P/S+2% FBS+500 ng/mL FGF4 (R&D systems)+5 μM CHIR for 4 days. […]
Nuclei can be counterstained with DAPI (Sigma). […] Immunofluorescence is visualized using an inverted fluorescence microscope (Nikon Eclipse Ti, Tokyo, Japan). Quantification is performed by counting a minimum of five random fields at 10× magnification. […]

Molecule: FGF2: fibroblast growth factor-2
- cells positive for PAX2 by immunostaining (CHIR-induced hPSCs; CHIR 24 hours then FGF2 100 ng/mL): 50-60%
- PAX2 expression (CHIR-induced hPSCs; FGF2 added to hPSCs not initially induced with CHIR): absence of PAX2 expression

B1: WNT3A: wingless-type MMTV integration site family, member 3A; human Wnt3a (R&D systems) (protein, UniProt P56704 19-352, looked up)
Protein Wnt-3a: SYPIWWSLAVGPQYSSLGSQPILCASIPGLVPKQLRFCRNYVEIMPSVAEGIKIGIQECQHQFRGRRWNCTTVHDSLAIFGPVLDKATRESAFVHAIASAGVAFAVTRSCAEGTAAICGCSSRHQGSPGKGWKWGGCSEDIEFGGMVSREFADARENRPDARSAMNRHNNEAGRQAIASHMHLKCKCHGLSGSCEVKTCWWSQPDFRAIGDFLKDKYDSASEMVVEKHRESRGWVETLRPRYTYFKVPTERDLVYYEASPNFCEPNPETGSFGTRDRTCNVSSHGIDGCDLLCCGRGHNARAERRREKCRCVFHWCCYVSCQECTRVYDVHTCK
- cells expressing BRACHY [1]: 26.7±1.9%

B2: BMP-4: candidate growth factor screened for PAX2 induction (protein, UniProt P12644 293-408, looked up)
Bone morphogenetic protein 4: SPKHHSQRARKKNKNCRRHSLYVDFSDVGWNDWIVAPPGYQAFYCHGDCPFPLADHLNSTNHAIVQTLVNSVNSSIPKACCVPTELSAISMLYLDEYDKVVLKNYQEMVVEGCGCR
- PAX2 expression (CHIR-induced hPSCs; CHIR 24 hours then increasing doses of factor): no PAX2 expression

B3: BMP-7: candidate growth factor screened for PAX2 induction (protein, UniProt P18075 293-431, looked up)
Bone morphogenetic protein 7: STGSKQRSQNRSKTPKNQEALRMANVAENSSSDQRQACKKHELYVSFRDLGWQDWIIAPEGYAAYYCEGECAFPLNSYMNATNHAIVQTLVHFINPETVPKPCCAPTQLNAISVLYFDDSSNVILKKYRNMVVRACGCH
- expression of LHX1 [2]: minimal effect
- percentage of cells expressing PAX2 [2]: significantly decreased
- PAX2 expression compared to vehicle control (CHIR-induced hPSCs; CHIR 24 hours then low doses of factor): modest increases
